Data on ten molecules can be found in patent US12129308B2, “MMP13 binding immunoglobulins” (Merck Patent GmbH, priority 2017, dated 2024).

Residue numbers refer to the chain shown, from its start. Names may count otherwise.

One may read the Tm as the temperature at which the thermal transition is half complete. A word on the IC50: it is the concentration at which inhibition is half-maximal. Read a high IC50 as weaker potency in that assay.

Data set [1] can be described thus: thermal shift assay (TSA). Format: physicochemical. To be noted: for Tm at pH 7: pH 7, monovalent Nanobodies; for TSA Tm (° C.)@ pH 7: C0101517A01 2nd round sequence optimization variants. As to the method:
TSA was carried out with 5 μl of purified monovalent Nanobodies in essence according to Ericsson et al. (2006 Anals of Biochemistry, 357: 289-298).
The thermal stability of the wildtype anti-MMP13 Nanobodies was investigated in a thermal shift assay (TSA).

Data set [2] can be described thus: analytical size exclusion chromatography (aSEC). Format: physicochemical. To be noted: main peak. The protocol: Analytical SEC experiments were performed on an Ultimate 3000 machine (Dionex) in combination with a Biosep-SEC-3 (Agilent) column.
The tendency for multimerisation and aggregation of a selected panel of 5 representative anti-MMP13 Nanobodies was investigated by analytical size exclusion chromatography (aSEC).
Background: Size exclusion chromatography separates by hydrodynamic size, large species first.

The nature of data set [3]: SDS-Page. Format: physicochemical.
Data set [4] is described as follows: temperature stress. Format: physicochemical. To be noted: forced oxidation and temperature stress conditions. The protocol:
Nanobody samples (1-2 mg/ml) were stored in PBS for four weeks at −20° C. (negative control) 25 and 40° C. After this incubation period, Nanobodies were digested with Trypsin or LysC. Peptides of stressed and control samples were then analyzed by means of RPC on a Series 1290 machine (Agilent Technologies) over an Acquity UPLC BEH300-C18 column (Agilent Technologies) at 60° C. coupled to a Q-TOF mass spectrometer (6530 Accurate Mass Q-TOF (Agilent))
(§1) In order to assess potential PTM, forced oxidation and temperature stress was applied on the lead panel.

Data set [5] has as its target T1, MMP13 (Homo sapiens, UniProt P45452). The data set can be described thus: fluorogenic peptide assay for sequence optimization variants and NNK libraries (species not stated). Format: biochemical. To be noted: C0101517A01 2nd round sequence optimization variants. The protocol: (§2) The setup of human, cynomolgus, rat, dog and bovine MMP13 fluorogenic peptide assays, as well as human MMP1 and MMP14 fluorogenic peptide assays is in brief as follows: activated MMP was incubated with fluorogenic peptide substrate Mca-PLGL-Dpa-AR-NH2 (R&D Systems #ES001) and a ⅕ dilution of periplasmic extract or a dilution series of purified Nanobody/positive control (total volume=20 μl in assay buffer 50 mM Tris pH 7.5, 100 mM NaCl, 10 mM CaCl2, 0.01% Tween20), for 2 h at 37° C.
However, the degree of isomerization and oxidation differed at the assessed conditions and were just below or above the applied threshold in each case. Eventually, amino acid residues 54-55, 100d-100e, M100j and 101-102 were identified as the residues responsible for the PTM. […] In order to attempt accommodating the different requirements, […] were constructed in which these residues were mutated, and subsequently screened in the fluorogenic peptide assay to evaluate possible potency losses as well as screened for biophysical properties (Tm).
Eventually, amino acid residues N100b and N101 were identified as residues sensitive to deamidation via temperature stress experiments. However, these residues are located in the CDR3 region, and potentially involved in target binding. Thus, knocking out the deamidation sites could have an impact on binding.

Data set [6] can be described thus: forced oxidation. Format: physicochemical. To be noted: forced oxidation and temperature stress conditions. The protocol:
Nanobody samples (1 mg/ml) were subjected for four hours at RT and in the dark to 10 mM H2O2 in PBS, in parallel with control samples without H2O2, followed by buffer switch to PBS using Zeba desalting spin columns (0.5 ml) (Thermo Scientific). Stressed and control samples were then analyzed by means of RPC on a Series 1200 or 1290 machine (Agilent Technologies) over a Zorbax 300SB-C3 column (Agilent Technologies) at 70° C. Oxidation of Nanobodies was quantified by determination of % peak area of pre-peaks occurring as a result of oxidative stress, compared to the main protein peak.
as §1

Data set [7] addresses T1, MMP13. Nature of the data set: human MMP13 fluorogenic peptide assay. Format: biochemical. The protocol:
as §2
(§3) The potency/efficacy of the Nanobodies was tested in the fluorogenic peptide assay, set up for different MMP13 orthologues and in the human collagenolytic assay (both assays were also used during screening, see Example 6.3). In addition, a second collagen-based assay (fluorogenic collagen assay) using higher Collagen concentrations in comparison with the collagenolytic assay was established to simulate the high Collagen concentration conditions in cartilage in which the MMP13 inhibitor is expected to be active. In this assay the fluorescence of the intact FITC-labelled Collagen substrate is low due to the reciprocal quenching effect of the fluorophores. Upon cleavage, quenching is lost and fluorescence increases.

The target in data set [8] is T2, activated MMP13 (Homo sapiens, UniProt P45452). The data set can be described thus: human collagenolytic assay (human Collagen II). Format: biochemical. To be noted: low Collagen concentration conditions. The protocol: The setup of this assay is in brief as follows: 250 ng/ml immunization grade human Collagen II (Chondrex #20052) was incubated with 5 nM activated MMP13 in 100 μl assay buffer (50 mM Tris-Cl pH 7.5, 100 mM NaCl, 10 mM CaCl2, 0.01% Tween-20). After 1.5 h incubation at 35° C., the reaction was neutralized with EDTA (10 μl of 30 mM stock). […] Remaining intact Collagen was detected via ELISA (reagents provided in Type II Collagen Detection kit (Chondrex #6009)).

In data set [9] the target is T2, activated MMP13. Nature of the data set: human fluorogenic collagen assay (DQ Collagen type I). Format: biochemical. To be noted: Table 6.5. The protocol:
In brief, the setup of this assay is as follows: 100 μg/ml DQ™ Collagen, type I from Bovine skin (fluorescein conjugate; Molecular Probes #D-12060 lot 1149062) was incubated with 10 nM activated MMP13 and a dilution series of purified Nanobody/positive control, for 2 h at 37° C. in 40 μl assay buffer (50 mM Tris-Cl pH 7.5, 100 mM NaCl, 10 mM CaCl2, 0.01% Tween-20).
as §3
In FIG. 1 the dose response curves for inhibition of activated human MMP13 when using high concentrations of bovine Collagen I (fluorogenic Collagen assay) are depicted.

Data set [10] deals with human full-length MMP13 (Homo sapiens, UniProt P45452). Nature of the data set: competition ELISA against biotinylated 40E09 (epitope binning). Format: binding. To be noted: 0.6 nM biotinylated 40E09. As to the method: FIG. 3: Competition ELISA with 0.6 nM biotinylated 40E09 against a panel of profile 1 and profile 2 Nanobodies on human full-length MMP13, coated via mouse anti-human MMP13 mAb (R&D Systems #MAB511). MMP13 was activated via incubation with APMA for 90 min at 37° C.
For epitope-binning a panel of monovalent Nanobodies derived from profile 1 and profile 2 were tested in a competition ELISA against the purified Nanobody 40E09 (profile 1).

Data set [11] deals with rat MMP13 (Rattus norvegicus, UniProt P23097). Nature of the data set: adapted (more sensitive) rat fluorogenic peptide assay. Format: biochemical. To be noted: 0.15 nM MMP13 instead of 1.33 nM. As to the method:
as §2
As best species cross-reactive binder (cf. Example 6.4.2) Nanobody 40E09 was selected as representative of profile 1 Nanobodies. For profile 2, three Nanobodies were selected: 516G08, 62C02 and 517A01. Profile 1 and profile 2 Nanobodies were combined in a bivalent format with a 35GS linker (see Table 6.5; Nb(A)-35GS-Nb(B)). The bivalent Nanobodies were cloned into pAX205, transformed into P. pastoris, expressed and purified according to standard procedures. […] Bivalent constructs were tested in this adapted fluorogenic peptide assay as well as in the human fluorogenic collagen assay.

B1: 517A01: anti-MMP13 Nanobody, profile 2, SEQ ID NO: 10; C010100087 is the parental of Table 6.7.1D (protein)
VHH: DVQLVESGGGLVQPGGSLRLSCAASGRTFSSYAMGWFRQAPGKEREFVAAISWSGGSTYYADSVKGRFTISRDNSKNTVYLQMNSLRPEDTAVYYCTAALAVYGPNRYRYGPVGEYNYWGQGTLVTVSS
Regarding B1, in data set [1], the “Tm at pH 7” value is 77.8 °C and the “TSA Tm (° C.)@ pH 7” value was found to be 78 °C. Besides, in [2], the relative area was found to be 100%. The SDS-Page results in [3] amounted to 1 band. Also, the deamidation entry in [4] was “prone to deamidation”.

B2: C010100649: C0101517A01 sequence optimization variant, mutations N100bS, N101Q (protein)
VHH: B1 VHH with N106S, N117Q
In the case of B2, the “TSA Tm (° C.)@ pH 7” value in data set [1] was found to be 79 °C. In [5], half-maximal inhibition (IC50) was put at 2 nM.

B3: C010100650: C0101517A01 sequence optimization variant, mutations N100bS, N101V (protein)
VHH: B1 VHH with N106S, N117V
Turning to B3, the “TSA Tm (° C.)@ pH 7” value in data set [1] turned out to be 81 °C. Further, the IC50 in data set [5] was 2.1 nM.

B4: C010100647: C0101517A01 sequence optimization variant, mutations N100bQ, N101V (protein)
VHH: B1 VHH with N106Q, N117V
Regarding B4, the “TSA Tm (° C.)@ pH 7” value in [1] was determined as 81 °C. Further, the IC50 in data set [5] amounted to 2.1 nM.

B5: C010100648: C0101517A01 sequence optimization variant, mutations N100bQ, N101Q (protein)
VHH: B1 VHH with N106Q, N117Q
With B5, the “TSA Tm (° C.)@ pH 7” value in [1] was 81 °C. Further, inhibition in data set [5] was half-maximal at 2.8 nM (IC50).

B6: 80A01: anti-MMP13 Nanobody, profile 2, SEQ ID NO: 12 (protein)
VHH: EVQLVESGGGLVQPGGSLRLSCAASGFTLAYYSIGWFRQAPGKEREGVSCISSGIDGSTYYADSVKGRFTISRDNAKNTMYLQMNNLKPEDTGVYYCAADPSHYYSEYDCGYYGMDYWGKGTLVTVSS
For the molecule B6, the “Tm at pH 7” value in [1] amounted to 68.6 °C. Also, the relative area in data set [2] is given as 95%. For the same molecule, the Met-oxidation entry in data set [6] is “prone”. The Asp-isomerization result in data set [4] is reported as “prone to Asp-isomerization”.

B7: 62C02: anti-MMP13 Nanobody, profile 2, SEQ ID NO: 11 (protein)
VHH: EVQLVESGGALVRPGGSLRLSCAASGFAFSAAYMSWVRQAPGRGLEWVSSISDDGSKTYYADSVKGRFTISRDNAKNTVYLQMNNLKPDDTAVYYCNTGYGATTTRPGRYWGQGTQVTVSS
Turning to B7, the midpoint of thermal melting (Tm) at pH 7 in [1] was 76.4 °C. For the same molecule, the relative area in data set [2] is reported as 100%.

B8: 516G08: anti-MMP13 Nanobody, profile 2, SEQ ID NO: 13 (protein)
VHH: DVQLVESGGGLVQPGGSLRLSCAGSGSIFRINVMAWYRQAPGKQRELVAAITSGGTTNYADSVKGRFTISRDNSKNTVYLQMNSLRPEDTAVYYCYADIGWPYVLDYDFWGQGTLVTVSS
For the molecule B8, the “Tm at pH 7” value in data set [1] amounted to 65.2 °C.

B9: 40E09: anti-MMP13 Nanobody, profile 1, SEQ ID NO: 1 (protein)
VHH: EVQLVESGGGSVQAGGSLRLSCAASGSTFSRYSMNWYRQAPGKQREFVAGISVGRITNYAVSVRGRFTISRDNAEGTGYLQMNSLKPEDTAVYYCNAGGLQGYWGLGTQVTVSS
For the molecule B9, the “inhibition in the fluorogenic peptide assay (screening)” value in [7] was “incomplete inhibition”. The “efficacy / inhibition in the collagenolytic assay” value in data set [8] is “positive”. The “IC50 human fluorogenic collagen assay” value in [9] is “partial”. For the same molecule, the “competition with 40E09 in competition ELISA” value in [10] is given as “compete with 40E09”. In addition, the “IC50 (adapted) rat fluorogenic peptide assay” value in [11] is reported as “neutral”. The “Tm at pH 7” value in data set [1] turned out to be 68.6 °C. The relative area in data set [2] was 100%. This molecule showed an SDS-Page results in data set [3] of 1 band.

B10: 529C12: anti-MMP13 Nanobody, profile 2, SEQ ID NO: 9 (protein)
VHH: DVQLVESGGGLVQPGGSLRLSCVASGSIFSINAMGWYRQAPGKQRELVAAISSGGSTYYADSVKGRFTISRDNSKNTVYLQMNSLRPEDTAVYYCNAAVDASRGLPYELYYYWGQGTLVTVSS
For B10, the “Tm at pH 7” value in data set [1] came out at 82.7 °C. In [2], the relative area turned out to be 100%. This molecule also came in with an SDS-Page results in data set [3] of 1 band.
